The source of these data is paper PMC2840190.

Experiment [1] deals with gp120-A prebound to sCD4 (HIV-1 (A subtype, isolate 92UG031) | human). The experiment can be described thus: ITC.
For experiment [2], the target named is gp120-B prebound to sCD4 (HIV-1 (B subtype, isolate YU2) | human) (UniProt P35961). In words: ITC. (Isothermal titration calorimetry measures the heat released or taken up as one component is titrated into another.)
Sequence of UniProt P35961 (P35961 whole entry, looked up): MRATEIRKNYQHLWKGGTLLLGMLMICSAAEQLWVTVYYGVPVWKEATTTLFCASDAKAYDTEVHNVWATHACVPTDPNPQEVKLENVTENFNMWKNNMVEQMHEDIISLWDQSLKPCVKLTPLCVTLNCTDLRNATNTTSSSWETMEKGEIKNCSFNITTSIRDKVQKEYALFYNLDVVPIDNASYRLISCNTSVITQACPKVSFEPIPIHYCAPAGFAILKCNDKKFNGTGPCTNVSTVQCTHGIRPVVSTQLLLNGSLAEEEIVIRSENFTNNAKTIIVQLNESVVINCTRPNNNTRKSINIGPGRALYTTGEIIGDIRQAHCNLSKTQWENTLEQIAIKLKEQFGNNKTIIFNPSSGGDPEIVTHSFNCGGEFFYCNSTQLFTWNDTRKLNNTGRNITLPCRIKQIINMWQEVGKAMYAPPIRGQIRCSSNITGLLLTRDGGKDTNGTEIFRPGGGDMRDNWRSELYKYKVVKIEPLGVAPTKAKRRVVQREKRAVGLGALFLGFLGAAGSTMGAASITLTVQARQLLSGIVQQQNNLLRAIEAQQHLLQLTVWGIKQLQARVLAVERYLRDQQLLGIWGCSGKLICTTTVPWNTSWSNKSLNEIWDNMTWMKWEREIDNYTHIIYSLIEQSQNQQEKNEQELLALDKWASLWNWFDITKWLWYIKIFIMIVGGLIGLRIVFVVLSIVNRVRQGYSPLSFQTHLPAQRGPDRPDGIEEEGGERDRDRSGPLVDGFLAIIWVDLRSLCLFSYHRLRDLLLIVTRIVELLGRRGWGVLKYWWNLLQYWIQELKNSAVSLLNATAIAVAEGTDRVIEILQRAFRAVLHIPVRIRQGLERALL

The Kd is the equilibrium constant for the complex coming apart. High values mean a looser complex, low ones a tighter complex. Substance Monoclonal antibody 17b yielded a Kd in experiment [1] of 12 nM. In addition, the dH in experiment [2] was -11.1 kcal/mol.
